Experimental data taken from article PMC10397247.
Where two headings read alike, the source gives them in different places.

Legend:
[1] = target: T1, 4H429-AA; test: two-hybrid library CCmax; conditions: mean of both orientations;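 also: natural log of median RNA to DNA barcode read ratio; higher means stronger binding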
T1 chain: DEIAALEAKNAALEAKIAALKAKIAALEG

[2] = target: T2, 4H4001-AA; test: two-hybrid library CCmax; conditions: mean of both orientations;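 also: natural log of median RNA to DNA barcode read ratio; higher means stronger binding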
T2 chain: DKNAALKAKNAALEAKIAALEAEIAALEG

[3] = target: T3, 4H3627-AA; test: two-hybrid library CCmax; conditions: mean of both orientations;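 also: natural log of median RNA to DNA barcode read ratio; higher means stronger binding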
T3 chain: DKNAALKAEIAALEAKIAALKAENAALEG

[4] = target: T4, 4H883-AA; test: two-hybrid library CCmax; conditions: mean of both orientations;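 also: natural log of median RNA to DNA barcode read ratio; higher means stronger binding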
T4 chain: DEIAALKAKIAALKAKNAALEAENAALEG

[5] = target: T5, 4H566-AA; test: two-hybrid library CCmax; conditions: mean of both orientations;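 also: natural log of median RNA to DNA barcode read ratio; higher means stronger binding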
T5 chain: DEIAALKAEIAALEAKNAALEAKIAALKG

[6] = target: T6, 4H780-AA; test: two-hybrid library CCmax; conditions: mean of both orientations;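 also: natural log of median RNA to DNA barcode read ratio; higher means stronger binding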
T6 chain: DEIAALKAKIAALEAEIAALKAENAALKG

[7] = target: T7, 4H797-AA; test: two-hybrid library CCmax; conditions: mean of both orientations
T7 chain: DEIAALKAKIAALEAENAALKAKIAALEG

[8] = target: T8, 4H717-AA; test: two-hybrid library CCmax; conditions: mean of both orientations
T8 chain: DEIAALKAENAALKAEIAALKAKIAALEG

[9] = target: T9, 4H454-AA; test: two-hybrid library CCmax; conditions: mean of both orientations
T9 chain: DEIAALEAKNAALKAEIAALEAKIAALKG

[10] = target: T10, 4H794-AA; test: two-hybrid library CCmax; conditions: mean of both orientations
T10 chain: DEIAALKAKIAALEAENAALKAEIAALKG

[11] = target: T11, 4H953-AA; test: two-hybrid library CCmax; conditions: mean of both orientations
T11 chain: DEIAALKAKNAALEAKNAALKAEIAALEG

[12] = target: T12, 4H3427-AA; test: two-hybrid library CCmax; conditions: mean of both orientations
T12 chain: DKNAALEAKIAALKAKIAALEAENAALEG

[13] = target: T13, 4H918-AA; test: two-hybrid library CCmax; conditions: mean of both orientations
T13 chain: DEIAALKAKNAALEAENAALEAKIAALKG

[14] = target: T14, 4H335-AA; test: two-hybrid library CCmax; conditions: mean of both orientations
T14 chain: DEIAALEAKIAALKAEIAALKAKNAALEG

[15] = target: T15, 4H993-AA; test: two-hybrid library CCmax; conditions: mean of both orientations
T15 chain: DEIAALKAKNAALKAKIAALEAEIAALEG

[16] = target: T16, 4H3782-AA; test: two-hybrid library CCmax; conditions: mean of both orientations
T16 chain: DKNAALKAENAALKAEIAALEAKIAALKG

[17] = target: T17, 4H568-AA; test: two-hybrid library CCmax; conditions: mean of both orientations
T17 chain: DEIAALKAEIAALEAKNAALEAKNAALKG

[18] = target: T18, 4H3354-AA; test: two-hybrid library CCmax
T18 chain: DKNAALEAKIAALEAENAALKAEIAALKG

[19] = target: T19, 4H48-AA; test: two-hybrid library CCmax; conditions: mean of both orientations
T19 chain: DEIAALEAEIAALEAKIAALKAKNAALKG

[20] = target: T20, 4H906-AA; test: two-hybrid library CCmax; conditions: mean of both orientations
T20 chain: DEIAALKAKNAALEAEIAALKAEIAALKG

[21] = target: T21, 4H3112-AA; test: two-hybrid library CCmax
T21 chain: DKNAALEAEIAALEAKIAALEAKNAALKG

[22] = target: T22, 4H317-AA; test: two-hybrid library CCmax; conditions: mean of both orientations
T22 chain: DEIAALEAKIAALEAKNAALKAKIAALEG

[23] = target: T23, 4H342-AA; test: two-hybrid library CCmax; conditions: mean of both orientations
T23 chain: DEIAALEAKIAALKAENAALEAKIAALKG

[24] = target: T24, 4H678-AA; test: two-hybrid library CCmax; conditions: mean of both orientations
T24 chain: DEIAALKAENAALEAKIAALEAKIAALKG

[25] = target: T25, 4H3855-AA; test: two-hybrid library CCmax; conditions: mean of both orientations
T25 chain: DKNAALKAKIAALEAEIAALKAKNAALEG

[26] = target: T26, 4H605-AA; test: two-hybrid library CCmax; conditions: mean of both orientations
T26 chain: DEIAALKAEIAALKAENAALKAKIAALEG

[27] = target: T27, 4H881-AA; test: two-hybrid library CCmax; conditions: mean of both orientations
T27 chain: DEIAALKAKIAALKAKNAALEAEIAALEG

[28] = target: T28, 4H687-AA; test: two-hybrid library CCmax; conditions: mean of both orientations
T28 chain: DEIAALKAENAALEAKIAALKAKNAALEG

[29] = target: T29, 4H3606-AA; test: two-hybrid library CCmax; conditions: mean of both orientations
T29 chain: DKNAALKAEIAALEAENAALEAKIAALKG

[30] = target: T30, 4H3921-AA; test: two-hybrid library CCmax; conditions: mean of both orientations
T30 chain: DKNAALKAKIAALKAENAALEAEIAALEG

[31] = target: T31, 4H3655-AA; test: two-hybrid library CCmax; conditions: mean of both orientations
T31 chain: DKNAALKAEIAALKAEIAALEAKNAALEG

[32] = target: T32, 4H3844-AA; test: two-hybrid library CCmax; conditions: mean of both orientations
T32 chain: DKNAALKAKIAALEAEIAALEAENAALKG

[33] = target: T33, 4H3343-AA; test: two-hybrid library CCmax; conditions: mean of both orientations
T33 chain: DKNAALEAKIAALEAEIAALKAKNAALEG

[34] = target: T34, 4H967-AA; test: two-hybrid library CCmax; conditions: mean of both orientations
T34 chain: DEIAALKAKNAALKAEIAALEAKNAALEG

[35] = target: T35, 4H797-bH; test: two-hybrid library CCNG1
T35 chain: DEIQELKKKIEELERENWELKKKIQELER

[36] = target: T36, 4H953-bH; test: two-hybrid library CCNG1
T36 chain: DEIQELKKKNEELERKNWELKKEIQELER

[37] = target: T37, 4H855-bH; test: two-hybrid library CCNG1
T37 chain: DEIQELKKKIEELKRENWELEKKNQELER

[38] = target: T38, 4H754-bH; test: two-hybrid library CCNG1
T38 chain: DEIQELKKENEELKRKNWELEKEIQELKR

[39] = target: T39, 4H457-bH; test: two-hybrid library CCNG1
T39 chain: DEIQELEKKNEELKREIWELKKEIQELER

[40] = target: T40, 4H575-bH; test: two-hybrid library CCNG1
T40 chain: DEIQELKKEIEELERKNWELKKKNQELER

[41] = target: T41, 4H3010-bH; test: two-hybrid library CCNG1
T41 chain: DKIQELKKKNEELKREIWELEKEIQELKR

[42] = target: T42, 4H3427-bH; test: two-hybrid library CCNG1
T42 chain: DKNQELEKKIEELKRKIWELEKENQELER

[43] = target: T43, 4H3112-bH; test: two-hybrid library CCNG1
T43 chain: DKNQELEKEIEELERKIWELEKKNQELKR

[44] = target: T44, 4H1831-bH; test: two-hybrid library CCNG1
T44 chain: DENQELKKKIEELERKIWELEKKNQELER

[45] = target: T45, 4H780-bH; test: two-hybrid library CCNG1
T45 chain: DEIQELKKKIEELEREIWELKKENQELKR

[46] = target: T46, 4H346-bH; test: two-hybrid library CCNG1
T46 chain: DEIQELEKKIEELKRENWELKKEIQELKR

[47] = target: T47, 4H2627-bH; test: two-hybrid library CCNG1
T47 chain: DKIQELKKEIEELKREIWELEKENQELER

[48] = target: T48, 4H2586-bH; test: two-hybrid library CCNG1
T48 chain: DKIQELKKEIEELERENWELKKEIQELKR

[49] = target: T49, O4; test: two-hybrid library CCNG1
T49 chain: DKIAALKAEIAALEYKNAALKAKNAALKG

[50] = target: T50, 4H2673-bH; test: two-hybrid library CCNG1
T50 chain: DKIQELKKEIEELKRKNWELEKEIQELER

[51] = target: T51, 4H3926-bH; test: two-hybrid library CCNG1
T51 chain: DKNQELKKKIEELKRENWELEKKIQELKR

[52] = target: T52, 4H2702-bH; test: two-hybrid library CCNG1
T52 chain: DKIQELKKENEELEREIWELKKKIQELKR

[53] = target: T53, 4H918-bH; test: two-hybrid library CCNG1
T53 chain: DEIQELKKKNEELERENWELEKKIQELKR

[54] = target: T54, 4H683-bH; test: two-hybrid library CCNG1
T54 chain: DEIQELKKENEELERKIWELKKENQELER

[55] = target: T55, 4H968-bH; test: two-hybrid library CCNG1
T55 chain: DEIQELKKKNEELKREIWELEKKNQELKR

[56] = target: T56, 4H626-bH; test: two-hybrid library CCNG1
T56 chain: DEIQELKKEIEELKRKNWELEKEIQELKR

[57] = target: T57, 4H4073-bH; test: two-hybrid library CCNG1
T57 chain: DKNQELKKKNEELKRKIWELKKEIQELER

[58] = target: T58, P4A-bH; test: two-hybrid library CCNG1
T58 chain: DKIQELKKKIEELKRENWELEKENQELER

[59] = target: T59, P3A-bH; test: two-hybrid library CCNG1
T59 chain: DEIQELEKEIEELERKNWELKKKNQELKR

[60] = target: T60, P7A-bH; test: two-hybrid library CCNG1
T60 chain: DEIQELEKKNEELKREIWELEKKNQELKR

[61] = target: T61, P8A-bH; test: two-hybrid library CCNG1
T61 chain: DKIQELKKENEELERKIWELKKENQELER

[62] = target: T62, P6A-bH; test: two-hybrid library CCNG1
T62 chain: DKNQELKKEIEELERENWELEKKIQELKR

[63] = target: T63, P5A-bH; test: two-hybrid library CCNG1
T63 chain: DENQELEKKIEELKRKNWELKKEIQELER

[64] = target: T64, P9A-bH; test: two-hybrid library CCNG1
T64 chain: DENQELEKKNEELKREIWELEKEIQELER

[65] = target: T65, 4H3438-AA; test: two-hybrid library CCmax
T65 chain: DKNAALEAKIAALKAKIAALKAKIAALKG

## DKNAALEAEIAALEAKIAALEAKNAALKG [4H3112-AA]
[1]
  interaction score: 0.94
[2]
  interaction score: -1.09
[3]
  interaction score: 0.212
[4]
  interaction score: 0.194
[5]
  interaction score: -1.22
[6]
  interaction score: -1.01
[7]
  interaction score: -1.25
[8]
  interaction score: -1.33
[9]
  interaction score: -0.722
[10]
  interaction score: -1.51
[11]
  interaction score: -1.62
[12]
  interaction score: 2.07
[13]
  interaction score: -1.44
[14]
  interaction score: 0.64
[15]
  interaction score: -0.58
[16]
  interaction score: -0.975
[17]
  interaction score: -0.907
[18]; mean of both orientations
  interaction score: -1.66
[19]
  interaction score: 0.163
[20]
  interaction score: -1.29
[21]
  interaction score: -0.157
[22]
  interaction score: -1.3
[23]
  interaction score: -0.739
[24]
  interaction score: -1.37
[25]
  interaction score: -0.622
[26]
  interaction score: -1.38
[27]
  interaction score: -0.621
[28]
  interaction score: -0.855
[29]
  interaction score: -0.965
[30]
  interaction score: -1.01
[31]
  interaction score: -0.414
[32]
  interaction score: 0.837
[33]
  interaction score: -1.15
[34]
  interaction score: -1.38

## DENQELKKKIEELERKIWELEKKNQELER [4H1831-bH]
[35]
  interaction score: -1.12
[36]
  interaction score: -0.749
[37]
  interaction score: -0.184
[38]
  interaction score: 0.0674
[39]
  interaction score: 0.724
[40]
  interaction score: -1.81
[41]
  interaction score: 1.32
[42]
  interaction score: 0.584
[43]
  interaction score: -0.582
[44]
  interaction score: -0.611
[45]
  interaction score: 0.511
[46]
  interaction score: 0.11
[47]
  interaction score: 1.87
[48]
  interaction score: -1.54
[49]
  interaction score: -1.48
[50]
  interaction score: 0.349
[51]
  interaction score: -0.549
[52]
  interaction score: 0.297
[53]
  interaction score: -0.221
[54]
  interaction score: -0.934
[55]
  interaction score: -2.37
[56]
  interaction score: 1.02
[57]
  interaction score: -0.216

## DEIQELEKEIEELERKNWELKKKNQELKR [P3A-bH]
[58]
  interaction score: 1.77
[59]
  interaction score: -0.68
[60]
  interaction score: 0.468
[61]
  interaction score: -1.03
[62]
  interaction score: 0.553
[63]
  interaction score: 0.779
[64]
  interaction score: 0.465

## DEIQELEKENEELERENWELEKEIQELER [P1A-bH]
[58]
  interaction score: -0.5
[59]
  interaction score: -1.59
[60]
  interaction score: -0.716
[61]
  interaction score: -0.232
[62]
  interaction score: -0.616
[63]
  interaction score: -0.798
[64]
  interaction score: -1.36

## DKNAALEAKIAALEAENAALKAEIAALKG [4H3354-AA]
[2]
  interaction score: -1.64
[4]
  interaction score: -2
[65]
  interaction score: -0.709
[7]
  interaction score: -0.991
[8]
  interaction score: -1.69
[11]
  interaction score: -1.6
[12]
  interaction score: -1.79
[13]
  interaction score: -1.56
[16]
  interaction score: -1.79
[17]
  interaction score: -1.54
[18]
  interaction score: 2.03
[25]
  interaction score: -1.85
[28]
  interaction score: -1.69
[34]
  interaction score: -1.42
